Assay results: the supplement of paper PMC9170038

Tested on: MS2 coat protein
Experiment: apparent KD of MS2 coat protein; designed switch direction (-1 OFF switch, 1 ON switch): -1; higher = weaker reporter binding
How it was run: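 Designed RNA switches were transcribed on Illumina chips by stalled E. coli RNA polymerase and titrated with SNAP-549-labelled MS2 coat protein from 0.7 or 1.5 nM, doubling to 3 µM. Step length ran from 0.8–1.5 h at the lowest concentration to 10–20 min at the highest. The apparent KD is the median over clusters for each design, from curve-fitted normalised cluster fluorescence.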

[1] = Eterna round: R95, input ligand: microRNA oligo, concentration not stated
[2] = Eterna round: R95, input ligand: FMN 200 uM
[3] = Eterna round: R95, input ligand: none
[4] = input ligand: microRNA oligo, concentration not stated

| Sequence | apparent KD of MS2 coat protein (input ligand: FMN 200 uM) [nM] | apparent KD of MS2 coat protein (input ligand: none) [nM] | apparent KD of MS2 coat protein [1] [nM] | apparent KD of MS2 coat protein [2] [nM] | apparent KD of MS2 coat protein [3] [nM] | apparent KD of MS2 coat protein [4] [nM] |
| --- | --- | --- | --- | --- | --- | --- |
| CCAGGAAGGCAGGAUAUCCAAAGCCGUCCCGGCGGAGAAGGGCUGACUUGAGGAUCACCCAAGUGAUGCCUAAC [Aratquve] (Eterna round: R97, puzzle: Exclusion 6) | 15.2 | 14.8 |  |  |  |  |
| UCCGUUUGAGGAUAUAUGUAGACAAACAUGAGGAUCACCCAUGUCGGGAUCGAAAUGUCCGUAGAAGGCAAACUGG [Eternabot (L2) Solution 13] (Eterna round: R97, puzzle: Exclusion 5) | 65.2 | 22.9 |  |  |  |  |
| GCACUGGCAGGAUAUACAUGAGGAUCACCCAUGUGAUCCCUUAGGUACAAAAGUACCAGUAGAAGGGCCUGUGC [Omei Ex3 Model Bachelor's Dilema v50] (Eterna round: R97, puzzle: Exclusion 3) | 315 | 564 |  |  |  |  |
| CGACCACAUGUAAACUGACACAUGAGGAUCACCCAUGUCAAGCUACGUUAGACUAAGCUCGCUACUACUCGUCUUAA [Eternabot (L2) Solution 4] (Eterna round: R97, puzzle: Sensor, turn-off variant 1) | 66.8 | 69.8 |  |  |  |  |
| UUAUAUAAUGUGAGGAUAUGCUGGUCCUUGGAUCAGCAGAAGGCACAUGAGGAUCACCCAUGUAGUAAAUUUUA [JL bmx4 3.02] (puzzle: Brourd's mod of Exclusion 4) |  |  | 17.9 |  |  |  |
| GUGUACAGAGGAUAUGCACGAGUAGUUACGAAAGUAACUAUACAUGAGGAUCACCCAUGUAGAAGGCUGUACAC [Dot plot directed v3] (puzzle: Exclusion 2) |  |  | 12.2 |  |  |  |
| CCUACUUACUAGGAUAUCAGAGUCGAAAGACUCUGAGAAGGAGUAACAUGAGGAUCACCCAUGUGUCCUAUAGG [Mod of Eli 11 - Jieux - Exclusion 6] (Eterna round: R97, puzzle: Exclusion 6) | 52.2 | 24.2 |  |  |  |  |
| GAGACGAAAGGAUAUACAUGAGGAUCACCCAUGUAUGAAACAUGAGAAGACACCGCUGGUAGAAGGUUUGGAAA [Eternabot (Original) Solution 46] (Eterna round: R97, puzzle: Exclusion 3) | 26.8 | 23.2 |  |  |  |  |
| AUUAUGUUAGGAUAUGCUUAUGGUGGAUAGUCCAGUAUGGUGCAGAAGGGACAUGAGGAUCACCCAUGUGCUGA [EX4 #32] (Eterna round: R97, puzzle: Exclusion 4) | 50.9 | 52.8 |  |  |  |  |
| UUUAAUUUUUUUUUUUUACAAGCUUUUUGCUCGUCUUAUACAUGAGGAUCACCCAUGUGGAUGGGAAAUGAAUUAUC [JMF 97] (puzzle: Sensor v3, turn-off variant 2) |  |  | 115 | 18.6 | 19.7 |  |
| UACAAUGCUUUUGUAAGGUACAUGAGGAUCACCCAUGUCUCGCAAAGGCUUGAUUAUCACGUACGCGCUUGUCUUGU [Eternabot (L1) Solution 17] (Eterna round: R97, puzzle: Sensor, turn-off variant 1) | 14.3 | 12.2 |  |  |  |  |
| AAGGCGUCAGGAUAUCCAAUAUAUGACAUGAGGAUCACCCAUGUUUCCACUCGUACCUCCGGAGAAGGGACAAAUA [Ex5 #87] (Eterna round: R97, puzzle: Exclusion 5) | 35.6 | 38 |  |  |  |  |
| GUGAGGUAAGGAUAUAGGAGAAAAGAUAAGGUAUGAGAGUUCUAGAAGGUACAUGAGGAUCACCCAUGUUAGGG [JR_Exclu4_Sub086] (puzzle: Exclusion 4) |  |  | 257 |  |  |  |
| UGAGUGCUGCGAGGAUAUACAUGAGGAUCACCCAUGUAAUCGUGUGAGGCAAAGCCUCACACGAUGUAGAAGGCGCAGUACUCU [Mat - Exclusion NG 2 - Mod of JL - D23] (Eterna round: R96, puzzle: Exclusion NG 2) | 12.8 | 18.2 |  |  |  | 11.4 |
| UUUUUGUAUGAAGGAUAUACUUAACAUGAGGAUCACCCAUGUGGUGUUGUGAGUGAGUGAGUUUAGUAGAAGGUCAAUUCUUUU [JMF's solution 88] (Eterna round: R96, puzzle: Exclusion NG 2) | 604 | 454 |  |  |  | 275 |
| GUGUUGGUAGGAUAUCCACCGACAAACAUGAGGAUCACCCAUGUGACGCUCCCUUGUCUUGGAGAAGGGCCGGCAU [Riritequla] (puzzle: Exclusion 5) |  |  | 42.4 |  |  |  |
| AGCAUGCUAGGAUAUACGGGACAUUAGGGUUCGUUGUAUGGACAUGAGGAUCACCCAUGUAGAAGGAGCGUGCA [Mat - Exclusion 2 - Mod of Hyphema - D94] (puzzle: Exclusion 2) |  |  | 23.5 |  |  |  |

| Sequence | apparent KD of MS2 coat protein (input ligand: FMN 200 uM) [nM] | apparent KD of MS2 coat protein (input ligand: none) [nM] | apparent KD of MS2 coat protein [1] [nM] | apparent KD of MS2 coat protein [2] [nM] | apparent KD of MS2 coat protein [3] [nM] | apparent KD of MS2 coat protein [4] [nM] |
| --- | --- | --- | --- | --- | --- | --- |
| AAGAAACAUGAGGAUCACCCAUGUGAGGAUAUGAGUAAGAAAAGAAAAGAAAGAAGAAUCAGAAGGCACAAAGG [salish99-ex1_r3_048] (puzzle: Exclusion 1) |  |  | 38.3 | 55.2 | 38.3 |  |
| ACUGGAGCAGGAUAUACAUUCGUGCUUCGGCACGUAAGAUCACAUGAGGAUCACCCAUGUAGAAGGGCUCCAGU [E2/5-D1] (Eterna round: R97, puzzle: Exclusion 2) | 970 | 122 |  |  |  |  |
| CCUUGUGUUGAGGAUAUGCGCCGGCUCGCUGGCGCAGAAGGCGGCACAUGAGGAUCACCCAUGUCAGUUCGCGU [salish99_ex6_r004_014] (Eterna round: R97, puzzle: Exclusion 6) | 431 | 29.8 |  |  |  |  |
| GUACAUUUAGGAUAUACGGCAGCCAAUGCAAGGGUUCUAUAACAUGAGGAUCACCCAUGUAGAAGGAGAGGGCG [Eternabot (L2) Solution 21] (Eterna round: R97, puzzle: Exclusion 2) | 70.8 | 55.2 |  |  |  |  |
| AAUAACAAUGUGAGGAUAUCUAGAGCCUCGGCUCUAGAGAAGGCACAUGAGGAUCACCCAUGUCUCAAUAACAA [BmEx4/2-E7] (Eterna round: R97, puzzle: Brourd's mod of Exclusion 4) | 502 | 52.7 |  |  |  |  |
| UGUUUAUAUGAAGGAUAUACUUAACAUGAGGAUCACCCAUGUGGUGUUGUGAGUGAGUGAGUUUAGUAGAAGGUCAAUGAUUUU [JMF's solution 75] (Eterna round: R96, puzzle: Exclusion NG 2) | 1030 | 333 |  |  |  | 200 |
| UAGAGAGAUAAGGAUAUCUAUUAAAUUGUGCGUAGAGAAGGUAUCACAUGAGGAUCACCCAUGUGGUCUAAUAA [Eternabot (L1) Solution 88] (Eterna round: R97, puzzle: Exclusion 6) | 29.7 | 24.1 |  |  |  |  |
| ACAUGAGGAUCACCCAUGUACAGGGUUUAGUUUCAUCGUUUGAAGGAUAUACACCGUUAGUUGUCGUAGAAGGUCACAGAUUGG [JR_ExcNG3_Sub009] (Eterna round: R96, puzzle: Exclusion NG 3) | 153 | 155 |  |  |  | 68.2 |
| ACAUGAGGAUCACCCAUGUCCGGCUGGUCCGUCUCGGCUGUCGAGGAUAUAGCUCGGUGUCCGCGCUAGAAGGUGGGAGCUGGU [Aenatbe mod 68] (Eterna round: R96, puzzle: Exclusion NG 3) | 150 | 135 |  |  |  | 93.3 |
| UGUACGAUGCGUGCUGACAUGCGUCGUGCAGCAGGUGUUACAUGAGGAUCACCCAUGUCCUCAUUUGCUCGUCUUAU [SL-sv3-2.08 JL mod] (puzzle: Sensor v3, turn-off variant 2) |  |  | 250 | 250 | 337 |  |
| GCCAGUUUUGUGAGGAUAUCGUGCCGUUAGCGGCAUGAGAAGGCACAUGAGGAUCACCCAUGUGUGCAUCCGAG [Eternabot (L1) Solution 91] (Eterna round: R97, puzzle: Brourd's mod of Exclusion 4) | 157 | 28.4 |  |  |  |  |
| AGCUGUGGCCGAGGAUAUUCAGCCUUAAAUACCGACGUAUAGUCGGACAUGAGGAUCACCCAUGUGGAGAAGGCGGUCUCAGCA [Eli eng2 - 046] (Eterna round: R96, puzzle: Exclusion NG 2) | 76.4 | 48.4 |  |  |  | 34.5 |
| GAAAAGGUAGGAUAUACGAAAAAAAAGGAUAGAAAAAAAACACAUGAGGAUCACCCAUGUAGAAGGACCAAAAG [salish99_ex2_r3_066] (puzzle: Exclusion 2) |  |  | 25.5 | 35.2 | 23.3 |  |
| UAUCGGGACUGAGGAUAUUCGUUCGAACACGAAGAAGAAGGUAGUGUCAGGGACAUGAGGAUCACCCAUGUGAUUUCAGUCCUA [JL ViennaUCT Erinle mod 3] (Eterna round: R96, puzzle: Exclusion NG 1) | 149 | 165 |  |  |  | 102 |
| GAUUAUGCGAGCUUUAGGGACAUGAGGAUCACCCAUGUUCGUCUUAUUGGUCUGGAUACACUAACAUACCUAAAUCU [JMF 14] (puzzle: Sensor v3, turn-off variant 1) |  |  | 27.9 | 19.2 | 21.2 |  |
| GAUCGCCGUGUCAGGAUAUCUUGUGUACCCACGUUAGAGAAGGGACAUGAGGAUCACCCAUGUACCCUGGUUCU [Brourd's mod of Exclusion 4 (MOD3 of Nando's BmEX4 C.21)] (Eterna round: R97, puzzle: Brourd's mod of Exclusion 4) | 18.7 | 17.8 |  |  |  |  |
